Biological target: Complement component C5 (human, UniProt P01031)
Experiment: SPR

Complement component C5, sequence (P01031 19-673, chain 1 of 2): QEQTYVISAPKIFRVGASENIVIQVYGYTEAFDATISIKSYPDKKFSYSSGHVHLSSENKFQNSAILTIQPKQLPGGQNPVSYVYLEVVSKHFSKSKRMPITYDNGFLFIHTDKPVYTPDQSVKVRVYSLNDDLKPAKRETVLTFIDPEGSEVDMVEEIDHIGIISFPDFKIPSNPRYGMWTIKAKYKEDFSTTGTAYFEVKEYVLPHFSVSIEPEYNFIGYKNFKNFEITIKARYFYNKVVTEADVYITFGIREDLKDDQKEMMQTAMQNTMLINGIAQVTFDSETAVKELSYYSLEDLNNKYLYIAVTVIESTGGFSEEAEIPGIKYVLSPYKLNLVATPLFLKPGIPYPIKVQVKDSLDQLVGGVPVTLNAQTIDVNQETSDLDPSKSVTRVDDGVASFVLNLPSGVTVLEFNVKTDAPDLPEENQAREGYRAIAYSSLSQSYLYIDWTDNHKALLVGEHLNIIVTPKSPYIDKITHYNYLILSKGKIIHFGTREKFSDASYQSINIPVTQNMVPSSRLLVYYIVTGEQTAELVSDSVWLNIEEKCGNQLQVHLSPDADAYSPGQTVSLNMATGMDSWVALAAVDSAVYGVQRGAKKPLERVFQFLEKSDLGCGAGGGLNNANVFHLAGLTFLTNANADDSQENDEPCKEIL
Complement component C5, sequence (P01031 678-1676, chain 2 of 2): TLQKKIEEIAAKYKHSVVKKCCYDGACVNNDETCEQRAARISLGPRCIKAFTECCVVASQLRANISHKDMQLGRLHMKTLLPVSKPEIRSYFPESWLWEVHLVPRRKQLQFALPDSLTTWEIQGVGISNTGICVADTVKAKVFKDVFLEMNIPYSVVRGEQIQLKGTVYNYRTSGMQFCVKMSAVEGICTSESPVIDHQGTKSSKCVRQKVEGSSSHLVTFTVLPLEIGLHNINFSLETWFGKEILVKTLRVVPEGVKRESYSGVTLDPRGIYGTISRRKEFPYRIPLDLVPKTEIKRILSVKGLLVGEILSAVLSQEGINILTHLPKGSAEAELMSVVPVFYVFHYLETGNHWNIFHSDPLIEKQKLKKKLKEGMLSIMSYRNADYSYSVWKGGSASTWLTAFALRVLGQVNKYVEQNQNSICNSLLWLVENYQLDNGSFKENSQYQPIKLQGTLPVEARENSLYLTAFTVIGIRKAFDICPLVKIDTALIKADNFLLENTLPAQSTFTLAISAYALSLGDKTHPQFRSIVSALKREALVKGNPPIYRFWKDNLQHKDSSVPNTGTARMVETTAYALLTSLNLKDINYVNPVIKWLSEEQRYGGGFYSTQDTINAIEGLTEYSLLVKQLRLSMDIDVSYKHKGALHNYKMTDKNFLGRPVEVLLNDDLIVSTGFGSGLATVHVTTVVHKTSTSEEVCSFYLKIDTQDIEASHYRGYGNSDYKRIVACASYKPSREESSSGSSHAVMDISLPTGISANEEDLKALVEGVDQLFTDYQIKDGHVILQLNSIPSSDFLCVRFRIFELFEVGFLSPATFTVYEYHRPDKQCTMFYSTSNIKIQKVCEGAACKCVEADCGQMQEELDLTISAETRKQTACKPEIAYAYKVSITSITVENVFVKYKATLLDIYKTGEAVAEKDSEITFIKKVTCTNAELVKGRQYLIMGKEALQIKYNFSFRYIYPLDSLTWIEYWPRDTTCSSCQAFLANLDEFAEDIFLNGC

B1: PGT121-K149 fusion protein (Fab)
chain 1: QMQLQESGPGLVKPSETLSLTCSVSGASISDSYWSWIRRSPGKGLEWIGYVHKSGDTNYSPSLKSRVNLSLDTSKNQVSLSLVAATAADSGKYYCARTLHGRRIYGSENLYFQGSCPDGFSYRSWDDFCCPMVGRCLAPRNGSENLYFQGSEWFTYFYMDVWGNGTQVTVSS
chain 2: QSVLTQPPDISVAPGETARISCGEKSLGSRAVQWYQHRAGQAPSLIIYNNQDRPSGIPERFSGSPDSPFGTTATLTITSVEAGDEADYYCHIWDSRVPTKWVFGGGTTLTVL
Kd: 517 nM

B2: PGT121-K136 fusion protein (Fab)
chain 1: QMQLQESGPGLVKPSETLSLTCSVSGASISDSYWSWIRRSPGKGLEWIGYVHKSGDTNYSPSLKSRVNLSLDTSKNQVSLSLVAATAADSGKYYCARTLHGRRIYGSENLYFQGTCPDNYREVDGCDPYDCCLTTWCTNSYCTRYIENLYFQGSEWFTYFYMDVWGNGTQVTVSS
chain 2: B1 chain 2
Kd: < 2.2 nM

From paper PMC7498065 (2020)
